Results taken from paper PMC10540216, “Activity Guided Azide-methyllysine Photo-trapping for Substrate Profiling of Lysine Demethylases” (Journal of the American Chemical Society, 2023).

Test system: KDM4A-I71AzF
Test: CASI: photo-crosslinking with HEK293T cell extracts, StrepTactin enrichment and LC-MS/MS proteomics;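 further: lysates from HEK293T cells pretreated with a KDM4 inhibitor to raise proteome methylation, affinity-purified after ±UV, gel-resolved, trypsin-digested, with exclusive unique peptides per protein averaged per condition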
Format: binding, human
Conditions: sheet "Final results but with 0.01"

Row | Molecule | Fold change (+UV/-UV)
1 | CH60_HUMAN (protein, UniProt P10809 27-573, looked up) 60 kDa heat shock protein, …: AKDVKFGADARALMLQGVDLLADAVAVTMGPKGRTVIIEQSWGSPKVTKDGVTVAKSIDLKDKYKNIGAKLVQDVANNTNEEAGDGTTTATVLARSIAKEGFEKISKGANPVEIRRGVMLAVDAVIAELKKQSKPVTTPEEIAQVATISANGDKEIGNIISDAMKKVGRKGVITVKDGKTLNDELEIIEGMKFDRGYISPYFINTSKGQKCEFQDAYVLLSEKKISSIQSIVPALEIANAHRKPLVIIAEDVDGEALSTLVLNRLKVGLQVVAVKAPGFGDNRKNQLKDMAIATGGAVFGEEGLTLNLEDVQPHDLGKVGEVIVTKDDAMLLKGKGDKAQIEKRIQEIIEQLDVTTSEYEKEKLNERLAKLSDGVAVLKVGGTSDVEVNEKKDRVTDALNATRAAVEEGIVLGGGCALLRCIPALDSLTPANEDQKIGIEIIKRTLKIPAMTIAKNAGVEGSLIVEKIMQSSSEVGYDAMAGDFVNMVEKGIIDPTKVVRTALLDAAGVASLLTTAEVVVTEIPKEEKDPGMGAMGGMGGGMGGGMF | 1.043
2 | K2C1B_HUMAN (protein, UniProt Q7Z794 1-578, looked up) Keratin, type II cytoskeletal …: MSHQFSSQSAFSSMSRRVYSTSSSAGSGGGSPAVGSVCYARGRCGGGGYGIHGRGFGSRSLYNLGGSRSISINLMGRSTSGFCQGGGVGGFGGGRGFGVGSTGAGGFGGGGFGGAGFGTSNFGLGGFGPYCPPGGIQEVTINQSLLEPLHLEVDPEIQRIKTQEREQIMVLNNKFASFIDKVRFLEQQNQVLQTKWELLQQVNTSTGTNNLEPLLENYIGDLRRQVDLLSAEQMRQNAEVRSMQDVVEDYKSKYEDEINKRTGSENDFVVLKKDVDAAYVSKVDLESRVDTLTGEVNFLKYLFLTELSQVQTHISDTNVILSMDNNRSLDLDSIIDAVRTQYELIAQRSKDEAEALYQTKYQELQITAGRHGDDLKNSKMEIAELNRTVQRLQAEISNVKKQIEQMQSLISDAEERGEQALQDAWQKLQDLEEALQQSKEELARLLRDYQAMLGVKLSLDVEIATYRQLLEGEESRMSGELQSHVSISVQNSQVSVNGGAGGGGSYGSGGYGGGSGGGYGGGRSYRGGGARGRSGGGYGSGCGGGGGSYGGSGRSGRGSSRVQIIQTSTNTSHRRILE | 4
3 | ERP44_HUMAN (protein, UniProt Q9BS26 30-406, looked up) Endoplasmic reticulum …: EITSLDTENIDEILNNADVALVNFYADWCRFSQMLHPIFEEASDVIKEEFPNENQVVFARVDCDQHSDIAQRYRISKYPTLKLFRNGMMMKREYRGQRSVKALADYIRQQKSDPIQEIRDLAEITTLDRSKRNIIGYFEQKDSDNYRVFERVANILHDDCAFLSAFGDVSKPERYSGDNIIYKPPGHSAPDMVYLGAMTNFDVTYNWIQDKCVPLVREITFENGEELTEEGLPFLILFHMKEDTESLEIFQNEVARQLISEKGTINFLHADCDKFRHPLLHIQKTPADCPVIAIDSFRHMYVFGDFKDVLIPGKLKQFVFDLHSGKLHREFHHGPDPTDTAPGEQAQDVASSPPESSFQKLAPSEYRYTLLRDRDEL | 0.5
4 | LAP2A_HUMAN (protein, UniProt P42166 2-694, looked up) Lamina-associated polypeptide …: PEFLEDPSVLTKDKLKSELVANNVTLPAGEQRKDVYVQLYLQHLTARNRPPLPAGTNSKGPPDFSSDEEREPTPVLGSGAAAAGRSRAAVGRKATKKTDKPRQEDKDDLDVTELTNEDLLDQLVKYGVNPGPIVGTTRKLYEKKLLKLREQGTESRSSTPLPTISSSAENTRQNGSNDSDRYSDNEEGKKKEHKKVKSTRDIVPFSELGTTPSGGGFFQGISFPEISTRPPLGSTELQAAKKVHTSKGDLPREPLVATNLPGRGQLQKLASERNLFISCKSSHDRCLEKSSSSSSQPEHSAMLVSTAASPSLIKETTTGYYKDIVENICGREKSGIQPLCPERSHISDQSPLSSKRKALEESESSQLISPPLAQAIRDYVNSLLVQGGVGSLPGTSNSMPPLDVENIQKRIDQSKFQETEFLSPPRKVPRLSEKSVEERDSGSFVAFQNIPGSELMSSFAKTVVSHSLTTLGLEVAKQSQHDKIDASELSFPFHESILKVIEEEWQQVDRQLPSLACKYPVSSREATQILSVPKVDDEILGFISEATPLGGIQAASTESCNQQLDLALCRAYEAAASALQIATHTAFVAKAMQADISQAAQILSSDPSRTHQALGILSKTYDAASYICEAAFDEVKMAAHTMGNATVGRRYLWLKDCKINLASKNKLASTPFKGGTLFGGEVCKVIKKRGNKH | 0
5 | PSPC1_HUMAN (protein, UniProt Q8WXF1 1-523, looked up) Paraspeckle component 1: MMLRGNLKQVRIEKNPARLRALESAVGESEPAAAAAMALALAGEPAPPAPAPPEDHPDEEMGFTIDIKSFLKPGEKTYTQRCRLFVGNLPTDITEEDFKRLFERYGEPSEVFINRDRGFGFIRLESRTLAEIAKAELDGTILKSRPLRIRFATHGAALTVKNLSPVVSNELLEQAFSQFGPVEKAVVVVDDRGRATGKGFVEFAAKPPARKALERCGDGAFLLTTTPRPVIVEPMEQFDDEDGLPEKLMQKTQQYHKEREQPPRFAQPGTFEFEYASRWKALDEMEKQQREQVDRNIREAKEKLEAEMEAARHEHQLMLMRQDLMRRQEELRRLEELRNQELQKRKQIQLRHEEEHRRREEEMIRHREQEELRRQQEGFKPNYMENREQEMRMGDMGPRGAINMGDAFSPAPAGNQGPPPMMGMNMNNRATIPGPPMGPGPAMGPEGAANMGTPMMPDNGAVHNDRFPQGPPSQMGSPMGSRTGSETPQAPMSGVGPVSGGPGGFGRGSQGGNFEGPNKRRRY | 1.667
6 | ODBA_HUMAN (protein, UniProt P12694 46-445, looked up) 2-oxoisovalerate …: SSLDDKPQFPGASAEFIDKLEFIQPNVISGIPIYRVMDRQGQIINPSEDPHLPKEKVLKLYKSMTLLNTMDRILYESQRQGRISFYMTNYGEEGTHVGSAAALDNTDLVFGQYREAGVLMYRDYPLELFMAQCYGNISDLGKGRQMPVHYGCKERHFVTISSPLATQIPQAVGAAYAAKRANANRVVICYFGEGAASEGDAHAGFNFAATLECPIIFFCRNNGYAISTPTSEQYRGDGIAARGPGYGIMSIRVDGNDVFAVYNATKEARRRAVAENQPFLIEAMTYRIGHHSTSDDSSAYRSVDEVNYWDKQDHPISRLRHYLLSQGWWDEEQEKAWRKQSRRKVMEAFEQAERKPKPNPNLLFSDVYQEMPAQLRKQQESLARHLQTYGEHYPLDHFDK | 1
7 | PDIP3_HUMAN (protein, UniProt Q9BY77 2-421, looked up) Polymerase delta-interacting …: ADISLDELIRKRGAAAKGRLNARPGVGGVRSRVGIQQGLLSQSTRTATFQQRFDARQKIGLSDARLKLGVKDAREKLLQKDARFRIKGKVQDAREMLNSRKQQTTVPQKPRQVADAREKISLKRSSPAAFINPPIGTVTPALKLTKTIQVPQQKAMAPLHPHPAGMRINVVNNHQAKQNLYDLDEDDDGIASVPTKQMKFAASGGFLHHMAGLSSSKLSMSKALPLTKVVQNDAYTAPALPSSIRTKALTNMSRTLVNKEEPPKELPAAEPVLSPLEGTKMTVNNLHPRVTEEDIVELFCVCGALKRARLVHPGVAEVVFVKKDDAITAYKKYNNRCLDGQPMKCNLHMNGNVITSDQPILLRLSDSPSMKKESELPRRVNSASSSNPPAEVDPDTILKALFKSSGASVTTQPTEFKIKL | 1
8 | TCPD_HUMAN (protein, UniProt P50991 2-539, looked up) T-complex protein 1 subunit …: PENVAPRSGATAGAAGGRGKGAYQDRDKPAQIRFSNISAAKAVADAIRTSLGPKGMDKMIQDGKGDVTITNDGATILKQMQVLHPAARMLVELSKAQDIEAGDGTTSVVIIAGSLLDSCTKLLQKGIHPTIISESFQKALEKGIEILTDMSRPVELSDRETLLNSATTSLNSKVVSQYSSLLSPMSVNAVMKVIDPATATSVDLRDIKIVKKLGGTIDDCELVEGLVLTQKVSNSGITRVEKAKIGLIQFCLSAPKTDMDNQIVVSDYAQMDRVLREERAYILNLVKQIKKTGCNVLLIQKSILRDALSDLALHFLNKMKIMVIKDIEREDIEFICKTIGTKPVAHIDQFTADMLGSAELAEEVNLNGSGKLLKITGCASPGKTVTIVVRGSNKLVIEEAERSIHDALCVIRCLVKKRALIAGGGAPEIELALRLTEYSRTLSGMESYCVRAFADAMEVIPSTLAENAGLNPISTVTELRNRHAQGEKTAGINVRKGGISNILEELVVQPLLVSVSALTLATETVRSILKIDDVVNTR | 0
9 | ASNS_HUMAN (protein, UniProt P08243 2-561, looked up) Asparagine synthetase …: CGIWALFGSDDCLSVQCLSAMKIAHRGPDAFRFENVNGYTNCCFGFHRLAVVDPLFGMQPIRVKKYPYLWLCYNGEIYNHKKMQQHFEFEYQTKVDGEIILHLYDKGGIEQTICMLDGVFAFVLLDTANKKVFLGRDTYGVRPLFKAMTEDGFLAVCSEAKGLVTLKHSATPFLKVEPFLPGHYEVLDLKPNGKVASVEMVKYHHCRDVPLHALYDNVEKLFPGFEIETVKNNLRILFNNAVKKRLMTDRRIGCLLSGGLDSSLVAATLLKQLKEAQVQYPLQTFAIGMEDSPDLLAARKVADHIGSEHYEVLFNSEEGIQALDEVIFSLETYDITTVRASVGMYLISKYIRKNTDSVVIFSGEGSDELTQGYIYFHKAPSPEKAEEESERLLRELYLFDVLRADRTTAAHGLELRVPFLDHRFSSYYLSLPPEMRIPKNGIEKHLLRETFEDSNLIPKEILWRPKEAFSDGITSVKNSWFKILQEYVEHQVDDAMMANAAQKFPFNTPKTKEGYYYRQVFERHYPGRADWLSHYWMPKWINATDPSARTLTHYKSAVKA | 2
10 | SNW1_HUMAN (protein, UniProt Q13573 2-536, looked up) SNW domain-containing protein …: ALTSFLPAPTQLSQDQLEAEEKARSQRSRQTSLVSSRREPPPYGYRKGWIPRLLEDFGDGGAFPEIHVAQYPLDMGRKKKMSNALAIQVDSEGKIKYDAIARQGQSKDKVIYSKYTDLVPKEVMNADDPDLQRPDEEAIKEITEKTRVALEKSVSQKVAAAMPVRAADKLAPAQYIRYTPSQQGVAFNSGAKQRVIRMVEMQKDPMEPPRFKINKKIPRGPPSPPAPVMHSPSRKMTVKEQQEWKIPPCISNWKNAKGYTIPLDKRLAADGRGLQTVHINENFAKLAEALYIADRKAREAVEMRAQVERKMAQKEKEKHEEKLREMAQKARERRAGIKTHVEKEDGEARERDEIRHDRRKERQHDRNLSRAAPDKRSKLQRNENRDISEVIALGVPNPRTSNEVQYDQRLFNQSKGMDSGFAGGEDEIYNVYDQAWRGGKDMAQSIYRPSKNLDKDMYGDDLEARIKTNRFVPDKEFSGSDRRQRGREGPVQFEEDPFGLDKFLEEAKQHGGSKRPSDSSRPKEHEHEGKKRRKE | 2
11 | CATA_HUMAN (protein, UniProt P04040 2-527, looked up) Catalase: ADSRDPASDQMQHWKEQRAAQKADVLTTGAGNPVGDKLNVITVGPRGPLLVQDVVFTDEMAHFDRERIPERVVHAKGAGAFGYFEVTHDITKYSKAKVFEHIGKKTPIAVRFSTVAGESGSADTVRDPRGFAVKFYTEDGNWDLVGNNTPIFFIRDPILFPSFIHSQKRNPQTHLKDPDMVWDFWSLRPESLHQVSFLFSDRGIPDGHRHMNGYGSHTFKLVNANGEAVYCKFHYKTDQGIKNLSVEDAARLSQEDPDYGIRDLFNAIATGKYPSWTFYIQVMTFNQAETFPFNPFDLTKVWPHKDYPLIPVGKLVLNRNPVNYFAEVEQIAFDPSNMPPGIEASPDKMLQGRLFAYPDTHRHRLGPNYLHIPVNCPYRARVANYQRDGPMCMQDNQGGAPNYYPNSFGAPEQQPSALEHSIQYSGEVRRFNTANDDNVTQVRAFYVNVLNEEQRKRLCENIAGHLKDAQIFIQKKAVKNFTEVHPDYGSHIQALLDKYNAEKPKNAIHTFVQSGSHLAAREKANL | 2
